Laboratory results reported in US20200173986A1 (HUGEL, published 2020).
Residue numbers refer to the chain shown, from its start.

Tests used:
[1] = biological target: T1, recombinant GST-SNAP25197 (UniProt P60880 1-197); test: direct ELISA; signal on GST-SNAP25197 against GST-SNAP25FL as reference
T1 construct: not shown: glutathione S-transferase (GST) tag

[2] = biological target: T1, recombinant GST-SNAP25197; test: BLI (Octet Red96); anti-GST biosensor dipped in 125 nM GST-SNAP25197, IgG as analyte
[3] = biological target: T1, recombinant GST-SNAP25197; test: BLI (Octet Red96); IgG on AMC biosensor, GST-SNAP25197 as analyte; koff is the instrument's lowest limit, tentatively given
[4] = biological target: T1, recombinant GST-SNAP25197; test: BLI (Octet Red96); anti-GST biosensor dipped in 250 nM GST-SNAP25197, IgG as analyte
recombinant GST-SNAP25FL = biological target: T2, recombinant GST-SNAP25FL (UniProt P60880 1-206); test: BLI (Octet Red96); IgG on AMC biosensor, GST-SNAP25FL as analyte; KD from a tentative koff limit
T2 construct: also called GST-SANP25FL; not shown: glutathione S-transferase (GST) tag
T2 sequence (P60880 whole entry): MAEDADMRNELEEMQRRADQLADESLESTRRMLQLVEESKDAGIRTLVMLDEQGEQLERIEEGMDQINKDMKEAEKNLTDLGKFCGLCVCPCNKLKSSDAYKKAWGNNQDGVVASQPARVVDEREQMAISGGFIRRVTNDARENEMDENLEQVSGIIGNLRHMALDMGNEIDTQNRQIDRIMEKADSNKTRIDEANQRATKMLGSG

T1 sequence (P60880 1-197): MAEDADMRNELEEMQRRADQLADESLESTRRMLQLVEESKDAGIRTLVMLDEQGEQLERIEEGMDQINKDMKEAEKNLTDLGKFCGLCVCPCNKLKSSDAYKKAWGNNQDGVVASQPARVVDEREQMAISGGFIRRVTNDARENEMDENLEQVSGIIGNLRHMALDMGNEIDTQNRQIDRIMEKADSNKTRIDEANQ

B1: D6 IgG (antibody, V domains shown)
VH: EVQLQQSGPELVKPGASVKISCKASGYTFTDYNMHWVKQSHGKSLEWIGYIYPYNGDTGYNQKFKSKATLTVDNSSSTAYMELRSLTSEDSAVYYCVRSGDYWGQGTTLTVSS
VL: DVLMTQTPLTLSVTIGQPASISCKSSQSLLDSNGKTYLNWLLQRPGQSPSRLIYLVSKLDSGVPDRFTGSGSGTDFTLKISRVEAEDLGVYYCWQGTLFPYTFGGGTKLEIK
**Q.** B1 was tested. Which “Ratio197/206 (A450 with SNAP25197 to A450 with SNAP25FL)” value [1] did it give?
**A.** 0.02 ratio

B2: C7 IgG (antibody, V domains shown)
VH: QVQLVETGGGLVQPKGSLKLSCAASGFTFNTNAMNWVRQAPGKGLEWVARIRSKSNNYATYYADSVKDRFTISRDDSQSLLYLQMNNLKTEDTAMYYCVYGRSYGGLSYWGQGTLVTVSA
VL: DIVMTQSPASLAVSLGQRATISCRASKSVSSSGYSYMHWYQQKPGQPPKLLIYLASNLESGVPARFSGSGSGTDFTLNIHPVEEEDAATYYCQHSRELPLTFGAGTKLELK
notes: also called C7 IgG2a
**Q.** For B2, which Kd [2] is on record?
**A.** 19.3 nM

**Q.** What about the koff [2] of the same binder?
**A.** 0.00494 s⁻¹

**Q.** What about the koff [3] of the same binder?
**A.** ≤ 1e-07 s⁻¹

**Q.** And the “Ratio197/206 (A450 with SNAP25197 to A450 with SNAP25FL)” value [1]?
**A.** 1040 ratio

**Q.** And the Kd [4]?
**A.** 4.41 nM

**Q.** And the koff [4]?
**A.** 0.00122 s⁻¹

B3: C24 IgG (antibody, V domains shown)
VH: EVKLVESGGGLVQPKGSLKLSCAASGYTFNTYAMNWVRQAPGKGLEWVARIRSKSNNYTTYYADSVKDRFTISRDDSQSMLYLQINNLKTEDTAMYYCVGQILYYYVGSPAWFAYWGQGTLVTVSA
VL: B2 VL with S31T, Y53F, L100W, A104G, L110I
**Q.** Which koff [3] does the source give for B3 here?
**A.** ≤ 1e-07 s⁻¹

**Q.** What about the “Ratio197/206 (A450 with SNAP25197 to A450 with SNAP25FL)” value [1] of the same binder?
**A.** 973 ratio

B4: C4 IgG (antibody, V domains shown)
VH: DVKLQESGPGLVKPSQSLSLTCTVTGYSITSDYAWNWIRQFPGNKLEWMGYISYSVGTRYNPSLKSRISITRDTSKNQFFLLLKSVTNEDTATYFCARKGEYGFAYWGQGTLVTVSA
VL: B2 VL with S31T
**Q.** For B4, which koff [3] is on record?
**A.** ≤ 1e-07 s⁻¹

**Q.** And the “Ratio197/206 (A450 with SNAP25197 to A450 with SNAP25FL)” value [1]?
**A.** 919 ratio

B5: C16 IgG (antibody, V domains shown)
VH: EVQLQQSGAELARPGASVQMSCKAFGYTFTNYTMHWVRQRPGQGLEWIGFINPSSDYTNYNQKFKDKATLSADKSSSTAYMQLSSLTSEDSAVYYCARRIFYNGRTYAAMDYWGQGTSVTVSS
VL: B2 VL
notes: also called C16 IgG1
**Q.** B5 was tested. Which “Ratio197/206 (A450 with SNAP25197 to A450 with SNAP25FL)” value [1] did it give?
**A.** 996 ratio

B6: C14 IgG (antibody, V domains shown)
VH: B2 VH with Q1E, Q3K, T7S, N56D, Q78P, L80M, S108G
VL: B2 VL with M4L, S31T, M37V
**Q.** B6 was tested. Which “Ratio197/206 (A450 with SNAP25197 to A450 with SNAP25FL)” value [1] did it give?
**A.** 953 ratio

B7: B23 IgG (antibody, V domains shown)
VH: EVQLQQSGAELVRPGASVKLSCTASGINIKDYYMHWMKQRPEQDLEWIGWIDPGNGDAEYAPKFQGKATMTADTSSNTAYLQLSSLTSEDTAVYYCNEIAYWGQGTLVTVSA
VL: not shown
notes: also called B23 IgG1
**Q.** B7 was tested. Which “Ratio197/206 (A450 with SNAP25197 to A450 with SNAP25FL)” value [1] did it give?
**A.** 0.92 ratio

**Q.** And the Kd (recombinant GST-SNAP25FL)?
**A.** ≤ 0.00104 nM

B8: D2 IgG (antibody, V domains shown)
VH: DVKLQESGPGLVKPSQSLSLTCSVTGYSITSGYYWNWIRQFPGNKLEWMGYIRYDGSNNYNPSLKNRISITRDTSKNQFFLKLNSVTTEDTASYYCARDRDSSYYFDYWGQGTALTVSS
VL: DIVMTQSSSYLSVSLGGRVTITCKASDHINNWLAWYQQKPGNAPRLLISDTTSLETGVPSRFSGSGSGKDYTLSITSLQTEDVATYYCQQYWSAPPTFGGGTKLEIK
**Q.** Which “Ratio197/206 (A450 with SNAP25197 to A450 with SNAP25FL)” value [1] does the source give for B8 here?
**A.** 0.03 ratio

B9: B4 IgG (antibody, V domains shown)
VH: EVKLVESGGGLVKPGGSLKLSCAASGFTFSNYGMSWVRQTPEKRLEWVATISSGGSYTYYPDSVKGRFTISRDNAKNTLYLQMSSLRSEDTAMYYCARHEGGGNPYFDYWGQGTTLTVSS
VL: DVLMTQTPLSLPVSLGDQASISCRSSQSLVHSNGNTYLHWYLQKPGQSPKLLIYKVSNRFSGVPDRFSGSGSGTDFTLKISRVEAEDLGVYFCSQNTLVPWTFGGGTKLEIK
notes: also called B4 IgG1; clone 4
**Q.** Which results are given for B9?
**A.** Ratio197/206 (A450 with SNAP25197 to A450 with SNAP25FL) [1]: 0.83 ratio; Kd (recombinant GST-SNAP25FL): ≤ 0.00105 nM

B10: D3 IgG (antibody, V domains shown)
VH: EVQLEESGGGLVQPGGSLKLSCAASGFTFSNYGMSWVRQTPDKRLELVATINSNGGTTYYPDSVKGRFTISRDNAKNTLYLQMSSLKSEDSAMYYCARDRDAMDYWGQGTSVTVSS
VL: B9 VL with L29I, H31N, N33H, H39E, F92Y, S94F, N96G, T97S, L98H
**Q.** How did the “Ratio197/206 (A450 with SNAP25197 to A450 with SNAP25FL)” value [1] turn out when B10 was run?
**A.** 12.9 ratio
